Here are results for five molecules from PMC10816986, “The Role of Key Amino Acids of the Human Fe(II)/2OG-Dependent Dioxygenase ALKBH3 in Structural Dynamics and Repair Activity toward Methylated DNA” (International Journal of Molecular Sciences, 2024).

Data set [1] can be described thus: Equilibrium fluorescence titration with 2OG. The data set is classed as binding. The conditions noted are these: 1 µM apoprotein, 25 °C, read-out: Dissociation constant Kd, 2OG. From the text:
(§1) To investigate the impact of selected mutations on ALKBH3’s ability to bind its cofactor, co-substrate, and methylated DNA, the fluorescent titration method was employed. It is well-established that enzyme–ligand binding typically leads to a protein conformational change, which in turn can alter the fluorescence intensity of tryptophan and tyrosine residues within the protein sequence. […] In this study, transitional metals (Fe(II), Ni(II), and Co(II)), 2OG, and the m3C substrate served as titrants. Protein fluorescence quenching was measured after the addition of an excess of the ligand to 1 µM of enzyme (Supplementary Figure S2). To determine the equilibrium dissociation constant’s Kd values, the resulting titration curves were analyzed using a non-linear regression algorithm (see Section 4.3 of “Materials and Methods” for details). […] As indicated by the data presented in Table 2, the stability of the wt ALKBH3 apoenzyme’s affinity to various ligands and damaged DNA generally corresponds to the stability of such complexes for AlkB and ALKBH2 enzymes. […] The binding of Ni(II) and Co(II) ions of similar radii was weakened by approximately two-fold. […] This behavior is more characteristic of the bacterial homolog AlkB rather than human ALKBH2 [7].
(§2) The intrinsic tryptophan fluorescence quenching was monitored at the maximum of emission (345 nm, in most cases) using an excitation wavelength of 280 nm, and 5 nm slits. An amount of 2 mM of (NH4)2Fe(SO4)2·6H2O, 2 mM of NiSO4×7H2O, 2 mM of CoSO4·7H2O, 2 mM of 2OG, or 100 µM of m3C substrate was titrated into 1 µM of apoprotein (a free enzyme with no metal or 2OG added) in the presence of 50 mM of HEPES-KOH (pH 7.8), 50 mM of KCl, and 10 mM of MgCl2. When titrating with DNA, the buffer was supplemented with 2 mM of EDTA. The dissociation constant Kd for a model of one-step binding (E + L ↔ EL) was determined using Equations (2)–(5) and a non-linear regression algorithm in the OriginPro 8.1 software (OriginLab Corp., Northampton, MA, USA):(2) Kd=E[L]/[EL] (3) F=f0+f1E+f2[EL] (4) e0=E+[EL] (5) l0=L+[EL] where F is the observed fluorescence intensity at any given ligand (L) concentration; f0 is the background fluorescence; f1 and f2 are partial fluorescence intensities of the free enzyme (E) and enzyme–ligand complex (EL), respectively; e0 and l0 are total concentrations of the enzyme and ligand.
(§3) Figure S2. Equilibrium binding of the wild-type and mutant ALKBH3 proteins to transition metals, 2OG, or m3C-containing DNA. The quenching of the enzyme ﬂuorescence is shown as a function of Fe(II) (A), Ni(II) (B), Co(II) (C), 2OG ( D), and single-stranded m3C substrate (E). The protein concentration was 1 µM. In the course of titration by Fe(II), a sodium ascorbate (1mM) was added to keep the metal in a reduced state. Experimental data points were ﬁtted to a single-site binding mode l (see “Materials and Methods”). Each trace represents the average of three technical […]
(§4) (1 picture or pasted object on this page, not shown here)

Data set [2] has as its system single-stranded DNA substrate m3C_FAM. Briefly: Enzymatic demethylation of single-stranded m3C DNA (chemical quenching, HpaII cleavage, PAGE). The following applies: for observed rate constant for demethylation, kobs: single exponential fit of product accumulation; for maximum DNA substrate demethylation degree (product yield): 90 min reaction, 2 µM enzyme and m3C_FAM, 40 µM Fe(II), 1 mM 2OG, 25 °C. The data set is classed as biochemical. Here is the method: The enzymatic activity of wt ALKBH3 dioxygenase and the Y143F, Y143A, L177A, and H191A mutants was investigated in a reaction with a 15nt single-stranded oligonucleotide substrate containing m3C at the ninth position from the 5’-end (see Section 4).
An enzymatic hydroxylation of a single-strand m3C-containing DNA was studied using a chemical quenching technique recently described for the ALKBH2 dioxygenase in [7]. Briefly, a typical reaction mixture contained an equimolar amount (2 µM) of the protein and FAM-labeled DNA substrate (m3C_FAM) in a buffer consisting of 50 mM of HEPES-KOH (pH 7.8), 50 mM of KCl, 10 mM of MgCl2, 1 mM of 2OG, 2 mM of sodium ascorbate, and 40 µM of (NH4)2Fe(SO4)2·6H2O. An equal volume of 0.2 M NaOH was added to […] of aliquots of the mixture to terminate the reaction at certain time points. After neutralization with HCl and desalting, each of the aliquots was supplemented by the complementary DNA strand and treated with the HpaII restriction endonuclease specific to the repaired sequence (CCGG) according to the manufacturer’s protocol. The resulting reaction product was separated from the substrate using denaturating PAGE and visualized by the Amersham Typhoon Imager (Cytiva, Uppsala, Sweden) (Supplementary Figure S1). Data for the wt, Y143F, and Y143A proteins were converted to mol/L units and then fitted to a single exponent (Equation (1)), where P, P0, and Pmax are amounts of product at any given time, at the zero-time point, and the end time point, respectively; kobs is the observed rate constant. (1) P=P0+Pmax(1−exp−kobst) […]
Figure 2 The catalytic activity of wt and mutant ALKBH3 proteins on single-stranded DNA substrate m3C_FAM. Time courses of the dealkylated product accumulation were obtained at 25 °C by mixing an equimolar amount (2 μM) of enzyme and FAM-labeled DNA substrate dissolved in the reaction buffer containing 40 μM Fe(II) and 1 mM 2OG. Each reaction time point is the mean ± SD of three technical replicates.
Figure S1. PAGE analysis of ALKBH3 repair activity towards the m3C -containing substrate. ALKBH3 at 2 µM was incubated with an equimolar amount of a FA M - labelled single-stranded substrate m3C_FAM. The reaction was quenched at each time point by the addition of an equal volume of 0.2 M NaOH.
as §4

Data set [3] is described as follows: Equilibrium fluorescence titration with Fe(II). In kind it is binding. The following applies: 1 µM apoprotein, 25 °C; read-out: Dissociation constant Kd, Fe(II).
Source text: as §1, §2, §3, §4

B1: wt ALKBH3: wild-type human Fe(II)/2OG-dependent dioxygenase ALKBH3 with N-terminal His-tag, expressed in E. coli (protein, UniProt Q96Q83 1-286, looked up)
Alpha-ketoglutarate-dependent …: MEEKRRRARVQGAWAAPVKSQAIAQPATTAKSHLHQKPGQTWKNKEHHLSDREFVFKEPQQVVRRAPEPRVIDREGVYEISLSPTGVSRVCLYPGFVDVKEADWILEQLCQDVPWKQRTGIREDITYQQPRLTAWYGELPYTYSRITMEPNPHWHPVLRTLKNRIEENTGHTFNSLLCNLYRNEKDSVDWHSDDEPSLGRCPIIASLSFGATRTFEMRKKPPPEENGDYTYVERVKIPLDHGTLLIMEGATQADWQHRVPKEYHSREPRVNLTFRTVYPDPRGAPW
modifications: N-terminal His-tag
notes: wild-type human Fe(II)/2OG-dependent dioxygenase ALKBH3 with N-terminal His-tag, expressed in E. coli
Take B1: the Kd was 52 ± 7 µM in data set [1] (listed as wt), ~50 µM in data set [1] and 25 ± 2 µM in data set [3]. Besides, the “observed rate constant for demethylation, kobs” value in data set [2] worked out at 0.70 ± 0.08 min⁻¹.

B2: Y143F ALKBH3: ALKBH3 mutant, Tyr143 replaced with Phe (protein, UniProt Q96Q83 1-286, looked up, variant Y143F)
Alpha-ketoglutarate-dependent …: MEEKRRRARVQGAWAAPVKSQAIAQPATTAKSHLHQKPGQTWKNKEHHLSDREFVFKEPQQVVRRAPEPRVIDREGVYEISLSPTGVSRVCLYPGFVDVKEADWILEQLCQDVPWKQRTGIREDITYQQPRLTAWYGELPYTFSRITMEPNPHWHPVLRTLKNRIEENTGHTFNSLLCNLYRNEKDSVDWHSDDEPSLGRCPIIASLSFGATRTFEMRKKPPPEENGDYTYVERVKIPLDHGTLLIMEGATQADWQHRVPKEYHSREPRVNLTFRTVYPDPRGAPW
As to B2, the Kd in data set [1] is 52 ± 4 µM; in data set [3], 23 ± 2 µM. For the same molecule, in data set [2], the “maximum DNA substrate demethylation degree (product yield)” value was determined as 30%. Also, in data set [2], the “observed rate constant for demethylation, kobs” value was 0.17 ± 0.02 min⁻¹.

B3: Y143A ALKBH3: ALKBH3 mutant, Tyr143 replaced with Ala (protein, UniProt Q96Q83 1-286, looked up, variant Y143A)
Alpha-ketoglutarate-dependent …: MEEKRRRARVQGAWAAPVKSQAIAQPATTAKSHLHQKPGQTWKNKEHHLSDREFVFKEPQQVVRRAPEPRVIDREGVYEISLSPTGVSRVCLYPGFVDVKEADWILEQLCQDVPWKQRTGIREDITYQQPRLTAWYGELPYTASRITMEPNPHWHPVLRTLKNRIEENTGHTFNSLLCNLYRNEKDSVDWHSDDEPSLGRCPIIASLSFGATRTFEMRKKPPPEENGDYTYVERVKIPLDHGTLLIMEGATQADWQHRVPKEYHSREPRVNLTFRTVYPDPRGAPW
For B3, the Kd was found to be 53 ± 10 µM in data set [1] and 25 ± 3 µM in data set [3]. Besides, the “maximum DNA substrate demethylation degree (product yield)” value in data set [2] is 10%.

B4: L177A ALKBH3: ALKBH3 mutant, Leu177 replaced with Ala (protein, UniProt Q96Q83 1-286, looked up, variant L177A)
Alpha-ketoglutarate-dependent …: MEEKRRRARVQGAWAAPVKSQAIAQPATTAKSHLHQKPGQTWKNKEHHLSDREFVFKEPQQVVRRAPEPRVIDREGVYEISLSPTGVSRVCLYPGFVDVKEADWILEQLCQDVPWKQRTGIREDITYQQPRLTAWYGELPYTYSRITMEPNPHWHPVLRTLKNRIEENTGHTFNSLACNLYRNEKDSVDWHSDDEPSLGRCPIIASLSFGATRTFEMRKKPPPEENGDYTYVERVKIPLDHGTLLIMEGATQADWQHRVPKEYHSREPRVNLTFRTVYPDPRGAPW
With B4, the Kd worked out at 67 ± 8 µM in data set [1] and 24 ± 2 µM in data set [3]. Also, the “maximum DNA substrate demethylation degree (product yield)” value in data set [2] was ≤ 7%.

B5: H191A ALKBH3: ALKBH3 mutant, His191 replaced with Ala (protein, UniProt Q96Q83 1-286, looked up, variant H191A)
Alpha-ketoglutarate-dependent …: MEEKRRRARVQGAWAAPVKSQAIAQPATTAKSHLHQKPGQTWKNKEHHLSDREFVFKEPQQVVRRAPEPRVIDREGVYEISLSPTGVSRVCLYPGFVDVKEADWILEQLCQDVPWKQRTGIREDITYQQPRLTAWYGELPYTYSRITMEPNPHWHPVLRTLKNRIEENTGHTFNSLLCNLYRNEKDSVDWASDDEPSLGRCPIIASLSFGATRTFEMRKKPPPEENGDYTYVERVKIPLDHGTLLIMEGATQADWQHRVPKEYHSREPRVNLTFRTVYPDPRGAPW
For the molecule B5, the values for the Kd in data set [1] and in data set [3] were 34 ± 2 µM and 20 ± 2 µM, respectively. The “maximum DNA substrate demethylation degree (product yield)” value in data set [2] is “undetectable”.
